The data set has as its target T1, GST-OsEIL1N (Oryza sativa, UniProt Q10M41 1-350).
T1 sequence: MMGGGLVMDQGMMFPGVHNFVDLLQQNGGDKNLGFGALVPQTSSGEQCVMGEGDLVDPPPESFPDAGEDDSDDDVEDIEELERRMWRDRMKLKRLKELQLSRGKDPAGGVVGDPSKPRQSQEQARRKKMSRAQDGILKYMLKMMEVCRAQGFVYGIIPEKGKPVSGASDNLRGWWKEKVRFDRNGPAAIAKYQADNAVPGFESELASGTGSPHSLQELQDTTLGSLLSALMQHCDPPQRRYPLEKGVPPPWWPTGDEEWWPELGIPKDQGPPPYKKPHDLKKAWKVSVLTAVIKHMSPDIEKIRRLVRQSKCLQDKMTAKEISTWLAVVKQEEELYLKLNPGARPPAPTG
As to the kind of experiment: EMSA; EMSA/Gel-Shift Binding Buffer (Beyotime GS005), 30 min at room temperature, 6% native PAGE; salt and pH not stated. The settings on record: protein: recombinant; tags: GST (N-terminal, pGEX-4T); label: 5' biotin on strand 1; blunt. On the technique in general: A gel shift assay detects complexes by their altered migration in electrophoresis.

B1: OsERF115 probe 1 (EBS1) (dsDNA)
DNA 1: CATAACTTTTCAGTCACATCATCTCCAATTTCAACCAAAATCCAAAC
DNA 2: GTTTGGATTTTGGTTGAAATTGGAGATGATGTGACTGAAAAGTTATG
For the molecule B1, the binding result is recorded as “binds”.

B2: OsERF115 probe 3 (EBS3) (dsDNA)
DNA 1: GATAGAACTACGTATGCACGGACCGGCTCATCACTAGAGGAG
DNA 2: CTCCTCTAGTGATGAGCCGGTCCGTGCATACGTAGTTCTATC
As to B2, the binding result is reported as “binds”.

B3: OsERF115 probe 2 (EBS2) (dsDNA)
DNA 1: ATATGGCTAGAAACATAAATGTAGCTACTTTCTCTGTGCACGA
DNA 2: TCGTGCACAGAGAAAGTAGCTACATTTATGTTTCTAGCCATAT
On to B3, for which the binding result is recorded as “binds”.

The record behind these values is paper PMC9342608, “The OsEIL1‐OsERF115‐target gene regulatory module controls grain size and weight in rice”.
